“Also recorded” adds a separate entry of the source.
How the values were obtained:
[1] = target: T1, purified recombinant VAP-1 (Homo sapiens, UniProt Q16853); assay: ELISA binding of biotinylated synthetic peptides to immobilized VAP-1; details: wells coated with VAP-1, BSA as negative control; streptavidin-HRP chemiluminescence detection
T1 sequence (Q16853 1-763): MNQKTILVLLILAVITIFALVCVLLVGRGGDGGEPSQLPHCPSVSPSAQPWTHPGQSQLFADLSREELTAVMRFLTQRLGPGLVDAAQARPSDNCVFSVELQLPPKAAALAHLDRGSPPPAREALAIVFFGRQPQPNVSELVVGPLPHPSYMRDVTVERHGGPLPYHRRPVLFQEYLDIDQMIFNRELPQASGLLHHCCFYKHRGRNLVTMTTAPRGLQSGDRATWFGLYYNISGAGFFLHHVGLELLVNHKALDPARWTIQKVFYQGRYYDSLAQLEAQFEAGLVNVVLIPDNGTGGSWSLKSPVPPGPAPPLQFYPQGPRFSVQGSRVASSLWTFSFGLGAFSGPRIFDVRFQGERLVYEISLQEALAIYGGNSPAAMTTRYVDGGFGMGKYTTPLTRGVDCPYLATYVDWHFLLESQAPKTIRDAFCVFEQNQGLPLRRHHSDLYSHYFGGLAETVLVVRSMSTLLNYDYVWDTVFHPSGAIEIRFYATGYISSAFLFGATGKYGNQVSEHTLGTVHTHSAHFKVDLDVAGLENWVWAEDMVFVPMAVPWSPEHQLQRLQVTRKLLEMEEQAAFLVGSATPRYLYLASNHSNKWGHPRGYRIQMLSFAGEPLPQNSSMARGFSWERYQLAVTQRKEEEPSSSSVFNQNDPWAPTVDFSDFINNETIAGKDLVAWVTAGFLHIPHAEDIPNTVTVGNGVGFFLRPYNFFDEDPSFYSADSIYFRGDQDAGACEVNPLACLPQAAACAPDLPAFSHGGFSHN
Experimental: Binding of peptides to VAP-1. VAP-1 and BSA as a negative control were immobilized in wells of Nunc Maxisorp 96-well ELISA plate overnight at 4° C., blocked with PBS/3% BSA for 1 h at 37° C. and incubated with biotinylated peptides (10 micrograms/ml or 100 micrograms/ml) for 2 h at room temperature. The wells were washed with PBS/0.1% Tween, incubated with HRP conjugated streptavidin for 1 h at room temperature and after washing a BM chemiluminescence ELISA substrate was added. Luminescence was measured with a luminometer (Tecan Ultra, Tecan, Zürich, Switzerland).

[2] = target: T2, VAP-1 expressed on the cell surface (CHO-VAP-1 cells) (Homo sapiens, UniProt Q16853); assay: Epitope analysis: competitive surface staining of CHO-VAP-1 cells with anti-VAP-1 mAb, flow cytometry; assay type: cell-based; details: cells expressing VAP-1 first incubated with 10 micrograms/ml protein, then anti-VAP-1 (JG2.10)
T2 construct: expressed in transfected cells; host or cells: CHO cells (CHO-VAP-1)
T2 sequence (Q16853 1-763): T1 sequence (Q16853 1-763)
Experimental: Surface stainings of CHO-VAP-1 and CHO-mock cells were performed using anti-VAP-1 (JG2.10) and a negative control (9B5) mAbs. Competitive stainings were done in the presence of 10 micrograms/ml either human Ig or Siglec-10-Ig. Alexa546-conjugated goat anti-rat IgG was used as the secondary reagent. All cells were analyzed using FACSCalibur and Cellquest software.

[3] = target: T3, VAP-1 (SSAO enzymatic activity) (Homo sapiens, UniProt Q16853); assay: Isotopic enzyme assay of SSAO activity of VAP-1 (14C-benzylamine, CHO-VAP-1 cell lysate); assay type: biochemical; details: 30 min preincubation with CHO-VAP-1 lysate
T3 construct: expressed in transfected cells; host or cells: CHO cells (CHO-VAP-1)
T3 sequence (Q16853 1-763): T1 sequence (Q16853 1-763)
Experimental: Semicarbazide sensitive mine oxidase (SSAO) enzymatic activity of VAP-1 after interaction with Siglec-10 was determined radiochemically. Briefly, 14-C labeled benzylamine (a model substrate for SSAO) was used as the substrate. The assay was performed at 37° C. for 120 minutes in a final volume of 400 microliters 0.1 mM Krebs-Ringer phosphate glucose buffer (pH 7.35) containing CHO-VAP-1 cell lysate and 5 microM benzylamine with tracer ^14C benzylamine (40 000 dpm) in the presence of 1 mM clorgyline (a MAO inhibitor). In the inhibitory studies, the lysate was preincubated 30 minutes with 10 micrograms/ml or 70 micrograms/ml Siglec-10-Ig-chimera or 1 mM semicarbazide before adding the benzylamine. Catalytic reaction was stopped with citric acid, and the aldehyde reaction products were extracted from the analyzed mixture into toluene containing 0.35 g/L diphenyloxazole. The amount of 14C-labeled benzaldehyde was quantified by scintillation counting using a beta-counter Wallac-1409 (Turku, Finland), and the activity of the enzyme was expressed as picomoles of benzaldehyde formed by milliliter of lysate per hour.

recombinant VAP-1 = target: T4, recombinant VAP-1 (Homo sapiens, UniProt Q16853); assay: ELISA binding of Siglec-10-Ig-chimera to recombinant VAP-1; details: chimera immobilized via anti-human IgG; VAP-1 detected with biotinylated TK-8-18
T4 sequence (Q16853 1-763): T1 sequence (Q16853 1-763)
Experimental: Siglec 10-Fc chimera binding to VAP-1. Anti-human IgG (Fc specific) antibody was coated onto Nunc Maxisorp wells overnight at 4° C. After blocking with PBS/2% BSA, Siglec-10-Ig-chimera (1 microgram/ml) was immobilized to wells via its Fc-tail for 2 h at room temperature and thereafter, recombinant VAP-1 ([…] incubated in wells for 2 h at room temperature. After washing the wells with PBS/0.1% Tween, biotinylated anti-human VAP-1 antibody (TK-8-18) was incubated in the wells for 1 h at room temperature and after that, the wells were incubated with HRP conjugated streptavidin for 1 h at room temperature. After washing the wells, a BM chemiluminescence ELISA substrate was added to the wells and luminescence was measured with Tecan luminometer.

| Substance | Binding of biotinylated synthetic peptide to VAP-1 (ELISA) [1] | further results |
| --- | --- | --- |
| CARLSLSWRGLTLCPS (listed as Homo sapiens) [P5] | bound specifically to wells coated with purified VAP-1 in comparison to BSA |  |
| CATLSWVLQNRVLSSC (listed as Homo sapiens) [P3, longer peptide matching Siglec-10 residues 284-297, cysteines added to both ends] | bound specifically to wells coated with purified VAP-1 in comparison to BSA |  |
| CVKWRGVVVC (Phage display library peptide) [peptide P1] | shown to bind to VAP-1; also recorded: efficiently bound to purified recombinant VAP-1 |  |
| CWSFRNRVLC (Phage display library peptide) [peptide P2] | shown to bind to VAP-1; also recorded: efficiently bound to purified recombinant VAP-1 |  |
| Siglec-10-Ig-chimera: Siglec-10 fused to an Ig Fc-tail, counter-receptor for VAP-1 |  | Cells positive for anti-VAP-1 antibody staining [2]: 43.7%; Inhibition of SSAO activity of VAP-1 ([3]; 10 μg/ml (~7 nM)): 20%; Inhibition of SSAO activity of VAP-1 ([3]; 70 μg/ml (~50 nM)): 30%; Interaction of Siglec-10-Ig-chimera with purified VAP-1 (ELISA) (recombinant VAP-1): interacts with VAP-1 |

— US8138151B2, “Peptides” (Faron Ventures Oy, priority 2006, dated 2012)
